These are literature values, as cited in PMC8894873.

As usually defined, the pKa is the pH at which an ionisable group is half protonated.

The data set deals with Glu66 (UniProt position 148, FTKKMEENAKK). In words: stability (inferred; the article mentions only a pH dependence of stability).

In the case of “Staphylococcal nuclease V66E variant (Staphylococcus aureus; V66E)”, the pKa is on record as 8.8.
